Experimental data from the supplement of paper PMC9170038.

Tested on: K4 kissing-loop RNA reporter
Assay: apparent KD of K4 kissing-loop reporter; higher = weaker reporter binding
Conditions: Eterna round: R107
Experimental: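 RNA-MaP round R107: designed RNA switches with theophylline, tryptophan, arginine or FMN aptamers are transcribed on-chip within common flanks. They are titrated with a labelled K4 kissing-loop RNA reporter in RNA-MaP buffer (100 mM Tris pH 7.5, 80 mM KCl, 4 mM MgCl2), without ligand or with the indicated ligand. Median apparent KD per design.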

[1] = input ligand: theophylline 20 uM
[2] = input ligand: tryptophan 2.4 mM
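Further: bound reporter read as fluorescence of individual clusters on recovered sequencing chips by microscopy, with normalized cluster intensities fitted with a binding model.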

Sequence	apparent KD of K4 kissing-loop reporter (input ligand: FMN 200 uM) [nM]	apparent KD of K4 kissing-loop reporter (input ligand: arginine 13.2 mM) [nM]	apparent KD of K4 kissing-loop reporter (input ligand: none) [nM]	apparent KD of K4 kissing-loop reporter [1] [nM]	apparent KD of K4 kissing-loop reporter [2] [nM]
CCUUCUCUUGAUAGUGAUGUUAUCAAGGGCAAGGAUAUCAUUUUAAUGAGAAGGUGUCCUUGAUAACAUGGAGGUCUGAAACAGA [Omei KL FMN A Exc C v6]	151	86.6	114	169	95.5
UAGGAUUUUUCGGCCGCCACUCUAGAUUCUGUGUAUUAUCUACGACUUGAAGUGAUGUUUCAGGAGAGGACCGGGAAGAUAUAAC [theeternabot_exclusion_KL_Trp_B_27]	226	210	238	307	225
AAGGGCCGGGCGGCCGCCACUGGUCGUGUACACGUACUAACCAGUGAUGUUGGUAUAGUACGCGACAGGACCGGGCCCGGCCCAA [Exclusion - Tryptophan B (Freestyle 30)]	405	359	445	297	236
GAUCGAUGUCAGGAUACCAGCGGAAUCGUCGGAGACUCGAGUGGAGUGAUGUUCCCAGCACGCCCUUGGCAGCCUUGUUUAAGAU [theeternabot_sameState_KL_Theo_B_19]	312	199	318	404	310
ACAUGCCCAGUGAUGUUGGAUAAAUAUGAAGGAGCGUGCGAAAGCACAGGUAGGUCGCAUAAUAGCAUGAGUCACGAAAGUGACA [#18 K4 Arginine A Same State]	327	291	356	278	209
GUUCCCUACAAGGAUACCAGAACGUGUAGUCCGAGCGCUAGUGAUGUUGGCGUCUACCUCUUCCCUUGGCAGCCUGCAAAUCAGU [theeternabot_sameState_KL_Theo_B_48]	269	155	236	217	200
AUUUUUUUAUCAGGAUAUUAGUGAUGGUUUUUUUUGUUAGUGAUGUUGAUAUUUGUUUUAUGUAUUUAAGAAGGGAUUGAGAUGU [tzzsullin]	120	41.2	56.9	64.4	84.2
AUUUUAGAGUGAUGUUCUAAUUGAUCAGAUACCAGACAAUUAUAAGUCCCUUGGCAGCUGUAGCCGAUAAAUUUAUUUAAUUUAA [JR_SSTheophyA_Sub024]	229	275	302	373	225
UUUUAUUAAUACUUCUAGUGAUGUUAGAUACGAGGACCGGUACGGCCGCCACUCGCUUAUUGGUUUAUAUAUUUUUUAUUCUUUA [JR_SSTryptoA_Sub013]	276	349	316	353	263
AAUGUUAGCAAAGGAUAUCUGAUGAGUGAUGUUUACGGACCGUUUGCGUUUCAUUACACGCAGCUCAGAGAAGGUUGGUGUGCAG [theeternabot_exclusion_KL_FMN_B_49]	1230	866	1180	890	961
CUACGUCGAGCGGCCGCCACUAUGGGUUGCCAAGUAGUGAUGUUACUGAGCUUUUAAUGAUCCUUUAGGACCGGGCUUUGGGAGG [theeternabot_sameState_KL_Trp_B_46]	281	203	227	269	174
AAAAUUAUCUGAAGGAGCGUGAAAUAAUAUUAAACAUAACAACCCAGUGAUGUUGGGUUAUCACAGGUAGGUCGCAGAUGUAGAA [Same State Arginie B GF 25]	106	113	108	115	90.8
GUAGCUAAAGAAGGAUAUCGGAUCCAAAUCAAGCAGUGAUGUUGCGUGAAGAUCGGCUCCAUGCCGCGAGAAGGUCUUUUCUGUU [theeternabot_sameState_KL_FMN_B_18]	179	305	207	284	147
GCGCGGGAGUGAUGUUCCAAGUGGUGUUAGCGAGGACCGGUACGGCCGCCACUCGUUACGGGCGGCCCGUAGGAUACACUGGCGC [Same State - Tryptophan A (Freestyle 18)]	431	399	430	560	392
CCAUUCUUUUACGAUACCAGUUUAAUUUAUUUAUUCAUAACCCUUGCCGAGUGAUGUUCGGACCCUUGGCAGCGUUUGCGAGAGG [vvuvmullin]	331	314	463	485	358
AAGUAGCUCUCGGCCGCCACUCCUCAGUGAUGUUGAGAUAUUAAGAGACAAUUGUCUCAUAUAAAGAGGACCGGGAGAGCUACAA [AK5 SS Tryptophan B]	445	384	439	460	133
GGGAGUAGUGCGGCCGCCACUGUGAAAGAAGAAGAAUAUAGUGAUGUUAUAUAGGAAUAAAAGAAUAGGACCGGGCAUUAGAUUU [SSTRyptB.R]	334	231	134	113	139
GAUAAUAGAAUAGAUACCAGUCAAGACCUAGUGAUGUUAGGGAGAUAAGUAGAAUGAAUUGGCCCUUGGCAGCUAUAAUAGUAGG [Default title]	92.4	106	80.5	129	73.4
UGUGUUGUUUUGAUGUUUGGUGUUGCAUGGCAGGAUAUCGUAGAGGCGAGAAGGGCUUUUGAGCGGUAUGAGUGAUGUUUGUAGG [p,,mmullin]	526	309	441	354	379
GGGCCAUGGUUUUUGCUAGUGAUGUUAGACCGAGGACCGGUACGGCCGCCACUCGGCAAGUCUUUCGUUAGAUCUCUGGGAAGUC [theeternabot_exclusion_KL_Trp_A_45]	810	661	1110	1160	578
GUGCAGUGAUGUUGCACGAGGAAAGACGAUACCAGCCGUAAAUAAGGCCCUUGGCAGCGUAGGCCAGCAUAAAGUAUGCUAGUCU [Oresbelaen]	120	107	111	89.2	99

Sequence	apparent KD of K4 kissing-loop reporter (input ligand: FMN 200 uM) [nM]	apparent KD of K4 kissing-loop reporter (input ligand: arginine 13.2 mM) [nM]	apparent KD of K4 kissing-loop reporter (input ligand: none) [nM]	apparent KD of K4 kissing-loop reporter [1] [nM]	apparent KD of K4 kissing-loop reporter [2] [nM]
AGAUAGGGCUGAAGGAGCGUCGGAGAAGAAAAGAAGAAAUCCAGUGAUGUUGGAUAAAUCCGACAGGUAGGUCGCAGUUUUAUGA [hbob_SS_Arginine_B_2t136]	109	116	127	140	119
AGGUUUUGAUUAGGAUAUGCACUGAGGAGGAGAAUAUAGUGAUGUUAUAUAAUAGGAAUUAGUAGAGUAGAAGGGAUUGAGGUUU [SSFMNB.U]	206	223	172	248	142
ACUGAGCAUGCGGCCGCCACUUCAGAACGUCGCCCGGAGGGCGACGCCUCCGCAGUGAUGUUGCGGAGGACCGGGCAUGUUCAGA [Omei KL Tryp B Exc A v4]	90.4	78.4	99.8	77.9	85.3
GGAGUUACCUGGGAUACCAGUCGGAGUCCGAGAGCUCGGAGUGAUGUUCUGGGAUGUUUCGGCCCUUGGCAGCUCUGGGACUCCC [#2 Exclusion - Theophylline B Attempt #10 (HarryS)]	220	181	241	249	198
AAACAUUGGUCGGAUACCAGCUUGAUCGGAAACGAUCUGCUGGAGUGAUGUUCCAAGUAAAGCCCUUGGCAGCCGACCGAUGAAA [MAT - Same State Theophlline B - Mod of Eli - D17]	133	62.8	55.6	143	74.5
CCACUAUUCUUGUCGGAGUGAUGUUCCGAUACCAGCAUAGAGAUGUGCCCUUGGCAGCGGUCUAUUCUACGCCCGUCUAUUUCAA [Somari]	165	125	135	157	148
UUGGAAAGACCAGAACAGGGCCUUAUCUGGGAGGAUAUGCUGGAGGGCAGAAGGCCCAGUGAUGUUGGGCCUUGUGCUCGUUCUA [Ainanti]	165	125	139	137	145
UCUUUUGUAUAUGAUACCAGCAGUGAGAGACAGGAAGUAUAGUGAUGUUAUAUGAGAGAAUGCCCUUGGCAGCGUGUGCGGUUGG [SSTheophylB.V]	95	174	322	268	137
AUAAAUAAUAAUGACUGAGAGUUUGGUGAGCGAGGACCGGUACGGCCGCCACUCGUACAUGAGUGAUGUUCUUGUAUGAGUCAGA [KL-XTryp-A6 #analogue]	127	97.6	95.6	97.6	105
ACAGUAGUGAUGUCUUUGAUAUUACUACUGCGAGGACCGGUACGGCCGCCACUCGCCCAUUUUUGGGUUGAGAGUGAUGUUCUCA [Skye_SS_TA2]	594	345	474	482	588
AGCCUGAUAUAAGGAUAUCCGGACCGAGUAACUGAGUGAUGUUCAGGUGAAUAAUGUCUCACAUUGGGAGAAGGUAUUUCAGCGA [theeternabot_sameState_KL_FMN_B_21]	232	182	251	276	225
AGUGAUGUUUUUUUUAAGAGUGAUGUUUUUCGAGGACCGGUACGGCCGCCACUCGAGUGAUGAGUGAGGUGUUGUGAUGUUUAGU [cxmullin]	436	314	458	504	248
GCUAUGGUUGGAAGGAGCGUUUAAUUACUAAUAAGAGUGAUGUUCGAUAGUAGGUAAUUGUAGCAGGUAGGUCGCCAACUAUAGC [KL-Arg B25]	215	232	186	222	224
UAUAUACAUAGAUAGUUGUAUAUCGAGGAAGGAGCGUGCGCAGGCACAGGUAGGUCGCCUCAGCGCACGAGUGAUGUUCGUGGGC [Tezale]	247	168	267	241	246
AUGCGCGCGGCGGCCGCCACUCGCAUGAGAGUGAUGUUCUCGCCGUGACCGUAAGGUCGCGGUGUGAGGACCGGGCCGGGCUGCG [#2 Same State - Tryptophan B Attempt #22 (HarryS)]	197	71.5	69.7	213	321
UUCAGGUGUUCGGCCGCCACUCCAGUGAUGUUGGAGUGGCUUCACAAGGGCCAGGACAAUGUAAGGAGGACCGGGAAUAUCUCAG [Onisle]	97.9	96.1	132	77.3	111
AAAUUUAAUAUAUUUAAUUAAUUAUGUGAUACCAGACAUUUAUAAGUCCCUUGGCAGCACAAUGCAGUGAUGUUGCAUAUAAUAA [JR_SSTheophyA_Sub012]	64.3	103	82.1	77.5	67.5
GUUACGCAUGGAAGGAGCGCAUGCUCAGCUAUAAGCUCAGUGAUGUUGAGCAUUUUUUUUUUGCAGGUAGGUCGCCAUGUGUAAC [Ex Arginine B K4 30]	172	188	218	191	170
GGGAGUAGUGCGGCCGCCACUGUGAAAGAAGAAGAAUAUAGUGAUGUUAUAUAGGAAGGGAAGAAUAGGACCGGGCAUUAGAUUU [SSTRyptB.aA]	186	355	417	190	186
UGAUAGGACAGAAGGAGCGGAAUGCUGUCCAAAAGGACAGCAAAUAUAAAAGGAGUGAUGUUCCAGGUAGGUCGCUGUCCUAUCU [ArgBX 20 #SwitchBubble #StaticStem]	271	206	219	234	203
GAUAAUAGCACGGCCGCCACUGAAAAGCCGUGCUAUACGAGUGAUGUUCGUAAUUAUACGGGAUUCAGGACCGGGUGCAACGGUA [Tryp B SS t1]	122	115	139	158	98.1
